Experimental findings from patent US20120021995A1 (published 2012) are described below.

Positions count from the first letter of the chain named.

The chains are these.
T1: recombinant human TRAIL R1 (DR4)/Fc chimera (human, UniProt O00220 24-239)
T1 construct: bought (R&D Systems); not shown: Fc of the bought chimera (R&D Systems)
T1 sequence: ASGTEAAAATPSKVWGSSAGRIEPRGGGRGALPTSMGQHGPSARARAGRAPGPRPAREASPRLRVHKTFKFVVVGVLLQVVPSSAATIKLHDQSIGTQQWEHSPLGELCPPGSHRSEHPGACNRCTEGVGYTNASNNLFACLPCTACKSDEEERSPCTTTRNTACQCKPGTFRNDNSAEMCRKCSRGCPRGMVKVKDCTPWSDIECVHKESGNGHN

T2: DR4 (TRAIL-R1) on cancer cells (human, UniProt O00220 24-468)
T2 sequence: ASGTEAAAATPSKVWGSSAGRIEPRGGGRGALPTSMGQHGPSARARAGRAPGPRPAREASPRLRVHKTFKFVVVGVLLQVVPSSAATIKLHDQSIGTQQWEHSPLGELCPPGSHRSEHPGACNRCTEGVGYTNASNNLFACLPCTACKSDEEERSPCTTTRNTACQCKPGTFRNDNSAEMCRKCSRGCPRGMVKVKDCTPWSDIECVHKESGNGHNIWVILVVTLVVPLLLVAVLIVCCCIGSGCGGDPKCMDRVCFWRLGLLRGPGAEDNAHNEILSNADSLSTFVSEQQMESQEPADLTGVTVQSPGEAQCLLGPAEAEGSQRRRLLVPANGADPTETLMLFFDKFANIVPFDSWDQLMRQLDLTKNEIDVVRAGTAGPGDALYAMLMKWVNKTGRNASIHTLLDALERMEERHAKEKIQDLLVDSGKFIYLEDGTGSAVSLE

B1: 119p83P1H12 (designed binder)
chain: ALQTVCLKGTKVHMKCFLAFTQTKTFHEASEDCISRGGTLSTPQTGSENDALYEYLRQSVGNEAEIWLGLNGWLEGVGWVDMTGARIAYKNWGTHISSQPDGGWPFSNENCAVLSGAANGKWFDKRCRDQLPYICQFGIV
notes: on phage
B2: 119p94P1H3 (designed binder)
chain: B1 chain with G93S, T94L, H95S, I96W, S97H, S98P
notes: on phage
B3: 119p94P1B6 (designed binder)
chain: B1 chain with G93H, T94P, H95Q, I96G, S97D, S98R
notes: on phage
B4: 119p94P1H10 (designed binder)
chain: B1 chain with G93S, H95A, I96Q, S97N, S98G
notes: on phage
B5: 119p94P1B2 (designed binder)
chain: B1 chain with G93W, T94F, H95P, I96T, S97L
notes: on phage
B6: 119p94P1E7 (designed binder)
chain: B1 chain with G93I, T94W, H95S, I96R, S97I, S98E
notes: on phage
B7: 119p94P1D11 (designed binder)
chain: B1 chain with T94S, H95T, I96G, S97E, S98K
notes: on phage
B8: 119p94P1E10 (designed binder)
chain: B1 chain with G93R, T94V, H95P, I96S, S97L, S98R
notes: on phage
B9: 119p94P1G1 (designed binder)
chain: B1 chain with T94E, H95V, S97A, S98P
notes: on phage
B10: 119p94P1A4 (designed binder)
chain: B1 chain with G93F, T94A, H95E, I96F, S97F, S98L
notes: on phage
B11: 119p94P1D2 (designed binder)
chain: B1 chain with G93L, T94D, H95V, I96T, S97K, S98T
notes: on phage
B12: 119p94P1B8 (designed binder)
chain: B1 chain with G93W, T94S, H95Y, I96W, S97D, S98T
notes: on phage
B13: 119p94P1D4 (designed binder)
chain: B1 chain with G93A, T94A, H95F, I96P, S97V, S98E
notes: on phage
B14: 119p94P1C1 (designed binder)
chain: EPPTQKPKKIVNAKKDVVNTKMFEELKSRLDTLAQEVALLKEQQALQTVCLKGTKVHMKCFLAFTQTKTFHEASEDCISRGGTLSTPQTGSENDALYEYLRQSVGNEAEIWLGLNGWLEGVGWVDMTGARIAYKNWAISDERQPDGGWPFSNENCAVLSGAANGKWFDKRCRDQLPYICQFGIV
notes: ATRIMER from pANA19
B15: 119p94P1B5 (designed binder)
chain: B14 chain with I138R, S139H, D140I, E141N, R142E
notes: ATRIMER from pANA19
B16: 119p83P1H1 (designed binder)
chain: B14 chain with A137T, I138Q, S139R, D140H, E141S, R142G
notes: ATRIMER from pANA19
B17: 119p94P1D8 (designed binder)
chain: B14 chain with A137G, I138W, S139M, E141S, R142K
notes: ATRIMER from pANA19
B18: 119p94P1F4 (designed binder)
chain: B14 chain with I138A, S139V, D140T, E141M, R142E
notes: ATRIMER from pANA19
B19: 119p94P1B4 (designed binder)
chain: B14 chain with I138E, S139V, D140P, E141F, R142F
notes: ATRIMER from pANA19
B20: 119p83P1H4 (designed binder)
chain: B14 chain with A137S, I138K, S139V, D140R, E141L, R142E
notes: ATRIMER from pANA19
B21: 65p114P1B2 (designed binder)
chain: EPPTQKPKKIVNAKKDVVNTKMFEELKSRLDTLAQEVALLKEQQALQTVCLKGTKVHMKCFLAFTQTKTFHEASEDCISRGGTLSTPQTGSENDALYEYLRQSVGNEAEIWLGLNGWLEGSGWVDMTGARIAYKNWFHDRFNQPDGGVQWRWENCAVLSGAANGKWFDKRCRDQLPYICQFGIV
B22: 65p114P1A3 (designed binder)
chain: B21 chain with F137A, H138D, D139P, R140K, F141W, N142S
B23: 142p62P1A2 (designed binder)
chain: B21 chain with F137G, H138D, D139Q, F141L, N142A
B24: 142p62P1G2 (designed binder)
chain: B21 chain with F137A, H138D, D139E, N142L
B25: 142p72P1C9 (designed binder)
chain: B21 chain with F137G, H138D, D139P, F141W, N142S
B26: 014-42.3B8 (designed binder)
chain: B21 chain with S121V, F137E, H138T, D139E, R140I, F141T, N142A, V148E, Q149H, R151G
notes: ATRIMER; also called 14p42P3B8
B27: 014-42.3D10 (designed binder)
chain: EPPTQKPKKIVNAKKDVVNTKMFEELKSRLDTLAQEVALLKEQQALQTVCLKGTKVHMKCFLAFTQTKTFHEASEDCISRGGTLSTPQTGSENDALYEYLRQSVGNEAEIWLGLNGYLEGYGWVDMTGARIAYKNWETEITAQPDGGATIAWENCAVLSGAANGKWFDKRCRDQLPYICQFGIV
notes: ATRIMER
B28: 014-42.3D11 (designed binder)
chain: B27 chain with Y117W, Y121A, A148W, T149H, I150W, A151R
notes: ATRIMER
B29: 029-15.B3D (designed binder)
chain: EPPTQKPKKIVNAKKDVVNTKMFEELKSRLDTLAQEVALLKEQQALQTVCLKGTKVHMKCFLAFTQTKTFHEASEDCISRGGTLSTPQTGSENDALYEYLRQSVGNEAEIWLGLNELRTDGLWVDMTGARIAYKNWETEITAQPDGGVMRRSENCAVLSGAANGKWFDKRCRDQLPYICQFGIV
notes: ATRIMER; also called 9b3d
B30: 029-15.B9F (designed binder)
chain: B29 chain with E116K, L117R, R118V, T119W, D120Y, G121R, L122G, V148M, M149R, S152R
notes: ATRIMER; also called 2a1a

The target of the first experiment is T1, recombinant human TRAIL R1 (DR4)/Fc …. Briefly: phage ELISA on DR4/Fc. A general note: ELISA stands for enzyme-linked immunosorbent assay.
For B1, the binding result was “binds”.
On the same count and under the same terms, the value for B2 was “binds”; that for B3 was “binds”; that for B4 was “binds”.
On the same count and under the same terms, the value for B5 was “binds”.
Still for that read-out and setting: next, B6: “binds”; B7: “binds”; B8: “binds”.
With B9, the binding result is given as “binds”.
For the molecule B10, the binding result is “binds”.
The same measure, in the same setting: next, B11: “binds”.
On the same count and under the same terms, next, B12: “binds”; B13: “binds”.

For a further experiment the target is unchanged. Kind of experiment: SPR (Biacore), ATRIMER. The procedure:
(§1) Immobilization of an anti-human IgG Fc antibody (Biacore) to the CM5 chip (Biacore) was performed using standard amine coupling chemistry and this surface was used to capture recombinant human DR4 or DR5 receptor Fc fusion protein (R&D Systems). ATRIMER™ dilutions (1-500 nM) were injected over the DR4 and DR5 receptor surface at 30 μl/min and kinetic constants were derived from the sensorgram data using the Biaevaluation software (version 3.1, Biacore). Data collection was 3 minutes for the association and 5 minutes for dissociation. The anti-human IgG surface was regenerated with a 30 s pulse of 3 M magnesium chloride. All sensorgrams were double-referenced against an activated and blocked flow-cell as well as buffer injections.
Clones were then sub-cloned into pANA19 for expression and purification as described above. Cell killing activity was measured as described above, and binding affinity was measured by Biacore.
(In SPR one partner is held on a chip, and binding of the other changes the refractive index at the surface.)
In the case of B14, the Kd came out at 1.85 nM; the koff (in general, a measure of how fast the partners let go of each other) stood at 0.000571 s⁻¹; the kon – broadly, the rate constant with which the complex forms – stood at 141000 M⁻¹ s⁻¹.
In the case of B15, the Kd was 1.11 nM, the koff turned out to be 0.000406 s⁻¹ and the on-rate (kon) was found to be 360000 M⁻¹ s⁻¹.
Taken in the same sequence, the figures for B16 were 1.42 nM, 0.000329 s⁻¹ and 221000 M⁻¹ s⁻¹.
For the molecule B17, the Kd amounted to 1.31 nM, the off-rate constant (koff) amounted to 0.000542 s⁻¹ and the kon is 400000 M⁻¹ s⁻¹.
The matching figures for B18: 2.96 nM, 0.000892 s⁻¹ and 125000 M⁻¹ s⁻¹.
With B19, the Kd turned out to be 2.82 nM, the off-rate (koff) stood at 0.00052 s⁻¹ and the association rate constant (kon) was 185000 M⁻¹ s⁻¹.
Taken in the same sequence, the figures for B20 were 0.16 nM, 2.21e-05 s⁻¹ and 138000 M⁻¹ s⁻¹.

A further experiment addresses T2, DR4 (TRAIL-R1) on cancer cells. Kind of experiment: cell-based or functional assay.
For B14, the “ED50 (nM) ST486 (cell killing)” value stood at 251 nM.
Turning to B15, the “ED50 (nM) ST486 (cell killing)” value stood at 6.6 nM.
On the same count and under the same terms, the value for B16 was 13 nM; that for B17 was 30.5 nM.
Same read-out and setting: the value for B18 was 308 nM.
Take B19: the “ED50 (nM) ST486 (cell killing)” value was found to be 127 nM.
Same read-out and setting: the value for B20 was 0.13 nM.

For the next experiment the target is unchanged. Kind of experiment: cell-based or functional assay. This is another data set of the same source.
For the molecule B21, the “EC50 Colo205 (cell killing)” value stood at 0.18 nM and the “EC50 ST486 (cell killing)” value was found to be 0.09 nM.
Taken in the same sequence, the figures for B22 were 0.11 nM and 0.05 nM.
Regarding B23, the “EC50 Colo205 (cell killing)” value worked out at 0.39 nM and the “EC50 ST486 (cell killing)” value worked out at 0.3 nM.
With B24, the “EC50 Colo205 (cell killing)” value was 0.32 nM and the “EC50 ST486 (cell killing)” value came to 0.2 nM.
Taken in the same sequence, the figures for B25 were 0.18 nM and 0.03 nM.

In a further experiment the target is T1, recombinant human TRAIL R1 (DR4)/Fc …. Kind of experiment: SPR (Biacore), DR4-Fc captured by anti-Fc, ATRIMER analyte; apparent. How it is done:
as §1
Consider B26, for which the Ka is 1.11e+08 M⁻¹, the Kd was determined as 9.01 nM, the koff turned out to be 0.00101 s⁻¹ and the on-rate (kon) was determined as 112000 M⁻¹ s⁻¹.
For B27, the Ka stood at 6.58e+06 M⁻¹, the Kd is 152 nM, the koff was 0.00185 s⁻¹ and the on-rate constant (kon) is 12200 M⁻¹ s⁻¹.
Regarding B28, the Ka was determined as 2.53e+07 M⁻¹, the Kd stood at 39.5 nM, the off-rate (koff) stood at 0.000526 s⁻¹ and the on-rate constant (kon) was 13300 M⁻¹ s⁻¹.

A further experiment deals with T3, recombinant human TRAIL R2 (DR5)/Fc chimera (human, UniProt O14763 54-182).
T3 construct: bought (R&D Systems); not shown: Fc of the bought chimera (R&D Systems)
Briefly: SPR (Biacore), DR5-Fc captured by anti-Fc, ATRIMER analyte; apparent. The procedure: as §1
Take B29: the Ka stood at 1.11e+06 M⁻¹, the Kd was determined as 899 nM, the dissociation rate constant (koff) stood at 0.000104 s⁻¹ and the kon stood at 116 M⁻¹ s⁻¹.
For B30, the Ka was 2.38e+07 M⁻¹, the Kd worked out at 42.8 nM, the koff stood at 0.00184 s⁻¹ and the association rate constant (kon) is 43800 M⁻¹ s⁻¹.
